Legend:
Assay in all cases: iTopia ELISA-like peptide-HLA binding
[1] = biological target: T1, Class I HLA molecule A*0101 in recombinant form
T1 MHC heavy: not shown
Text: (§1) In order to identify and validate the immunogenic epitopes of the protein VK3-20, the iTopia™ high-throughput Epitope Discovery System was used (Beckman Coulter).

[2] = biological target: T2, Class I HLA molecule A*0201 in recombinant form
T2 construct: also called HLA-A*0201
T2 MHC heavy: not shown
Text: as §1

[3] = biological target: Class I HLA molecule A*0301 in recombinant form (UniProt P04439 25-302)
Text: as §1

[4] = biological target: T3, Class I HLA molecule A*1101 in recombinant form (UniProt P04439 25-302)
T3 MHC heavy: not shown
Text: as §1

[5] = biological target: T4, Class I HLA molecule A*2402 in recombinant form
T4 MHC heavy: not shown
Text: as §1

[6] = biological target: Class I HLA molecule B*0702 in recombinant form (UniProt P01889 25-302)
Text: as §1

[7] = biological target: T5, Class I HLA molecule B*0801 in recombinant form (UniProt P01889 25-309, limits assumed)
T5 MHC heavy: not shown
Text: as §1

[8] = biological target: T6, Class I HLA molecule B*1501 in recombinant form (limits assumed)
T6 MHC heavy: not shown
Text: as §1

Binder: FTLTISRLE [VK3-20 peptide No 72 FTLTISRLE]
- Bond results [1]: 4%
- Bond results [2]: 22%
- Bond results [3]: 2%
- Bond results [4]: 4%
- Bond results [5]: 18%
- Bond results [6]: 11%
- Bond results [7]: 6%
- Bond results [8]: 3%

Binder: VLTQSPGTL [VK3-20 peptide No 3 VLTQSPGTL]
- Bond results [1]: 0%
- Bond results [2]: 23%
- Bond results [3]: 2%
- Bond results [4]: 0%
- Bond results [5]: 18%
- Bond results [6]: 0%
- Bond results [7]: 1%
- Bond results [8]: 0%

Binder: RLLIYGASS [VK3-20 peptide No 46 RLLIYGASS]
- Bond results [1]: 0%
- Bond results [2]: 24%
- Bond results [3]: 0%
- Bond results [5]: 0%
- Bond results [6]: 0%
- Bond results [7]: 0%
- Bond results [8]: 0%

Binder: SYLAWYQQK [VK3-20 peptide No 32 SYLAWYQQK]
- Bond results [1]: 0%
- Bond results [2]: 10%
- Bond results [3]: 23%
- Bond results [4]: 28%
- Bond results [5]: 29%
- Bond results [6]: 4%
- Bond results [7]: 1%
- Bond results [8]: 0%

Binder: QQYGSSPRT [VK3-20 peptide No 90 QQYGSSPRT]
- Bond results [1]: 1%
- Bond results [2]: 12%
- Bond results [3]: 3%
- Bond results [4]: 11%
- Bond results [7]: 1%
- Bond results [8]: 24%

Binder: RTFGQGTKV [VK3-20 peptide No 97 RTFGQGTKV]
- Bond results [1]: 1%
- Bond results [2]: 30%
- Bond results [3]: 37%
- Bond results [4]: 15%
- Bond results [6]: 1%
- Bond results [7]: 2%
- Bond results [8]: 4%

Binder: TQSPGTLSF [VK3-20 peptide No 5 TQSPGTLSF]
- Bond results [1]: 1%
- Bond results [2]: 3%
- Bond results [3]: 1%
- Bond results [4]: 0%
- Bond results [5]: 28%
- Bond results [6]: 0%
- Bond results [7]: 2%
- Bond results [8]: 44%

Binder: LLIYGASSR [VK3-20 peptide No 47 LLIYGASSR]
- Bond results [1]: 0%
- Bond results [2]: 33%
- Bond results [3]: 4%
- Bond results [4]: 85%
- Bond results [6]: 4%
- Bond results [7]: 1%

Binder: VSSSYLAWY [VK3-20 peptide No 29 VSSSYLAWY]
- Bond results [1]: 44%
- Bond results [2]: 4%
- Bond results [3]: 2%
- Bond results [5]: 12%
- Bond results [6]: 1%
- Bond results [7]: 1%
- Bond results [8]: 2%

Binder: LIYGASSRA [VK3-20 peptide No 48 LIYGASSRA]
- Bond results [1]: 1%
- Bond results [2]: 32%
- Bond results [4]: 60%
- Bond results [7]: 3%
- Bond results [8]: 11%

Binder: TLSCRASQI (also called P20) [VK3-20 peptide No 20 TLSCRASQI]
- Bond results [1]: 1%
- Bond results [2]: 28%
- Bond results [3]: 2%
- Bond results [4]: 2%
- Bond results [5]: 14%
- Bond results [6]: 3%
- Bond results [8]: 1%

Binder: VYYCQQYGS [VK3-20 peptide No 86 VYYCQQYGS]
- Bond results [1]: 1%
- Bond results [2]: 1%
- Bond results [3]: 0%
- Bond results [4]: 1%
- Bond results [5]: 21%
- Bond results [7]: 0%
- Bond results [8]: 1%

Binder: QYGSSPRTF [VK3-20 peptide No 91 QYGSSPRTF]
- Bond results [1]: 1%
- Bond results [2]: 0%
- Bond results [3]: 1%
- Bond results [4]: 1%
- Bond results [5]: 65%
- Bond results [7]: 1%
- Bond results [8]: 2%

Binder: GQAPRLLIY [VK3-20 peptide No 42 GQAPRLLIY]
- Bond results [1]: 0%
- Bond results [2]: 10%
- Bond results [3]: 10%
- Bond results [5]: 12%
- Bond results [7]: 2%
- Bond results [8]: 49%

Binder: IVLTQSPGT [VK3-20 peptide No 2 IVLTQSPGT]
- Bond results [1]: 1%
- Bond results [2]: 22%
- Bond results [3]: 1%
- Bond results [4]: 1%
- Bond results [5]: 11%
- Bond results [6]: 1%
- Bond results [7]: 2%
- Bond results [8]: 0%

Binder: IVSSSYLAW [VK3-20 peptide No 28 IVSSSYLAW]
- Bond results [1]: 0%
- Bond results [3]: 4%
- Bond results [4]: 3%
- Bond results [5]: 34%
- Bond results [7]: 2%
- Bond results [8]: 0%

Binder: KPGQAPRLL [VK3-20 peptide No 40 KPGQAPRLL]
- Bond results [1]: 0%
- Bond results [2]: 2%
- Bond results [3]: 2%
- Bond results [4]: 0%
- Bond results [6]: 29%
- Bond results [7]: 1%
- Bond results [8]: 0%

Binder: YLAWYQQKP [VK3-20 peptide No 33 YLAWYQQKP]
- Bond results [1]: 0%
- Bond results [2]: 41%
- Bond results [3]: 4%
- Bond results [4]: 2%
- Bond results [5]: 14%
- Bond results [7]: 2%
- Bond results [8]: 2%

Binder: SPRTFGQGT [VK3-20 peptide No 95 SPRTFGQGT]
- Bond results [1]: 1%
- Bond results [2]: 0%
- Bond results [3]: 2%
- Bond results [4]: 0%
- Bond results [5]: 12%
- Bond results [6]: 41%
- Bond results [7]: 2%
- Bond results [8]: 2%

Binder: ASQIVSSSY [VK3-20 peptide No 25 ASQIVSSSY]
- Bond results [3]: 2%
- Bond results [5]: 13%
- Bond results [7]: 2%
- Bond results [8]: 49%

Binder: RLEPEDFAV [VK3-20 peptide No 78 RLEPEDFAV]
- Bond results [1]: 1%
- Bond results [2]: 19%
- Bond results [3]: 2%
- Bond results [4]: 2%
- Bond results [6]: 4%
- Bond results [7]: 0%
- Bond results [8]: 2%

Binder: SQIVSSSYL [VK3-20 peptide No 26 SQIVSSSYL]
- Bond results [1]: 1%
- Bond results [2]: 24%
- Bond results [3]: 4%
- Bond results [4]: 3%
- Bond results [5]: 16%
- Bond results [6]: 10%
- Bond results [7]: 3%
- Bond results [8]: 19%

— US8512703B2, “Idiotypic vaccine” (Areta International S.R.L., priority 2007, dated 2013)
